Test results reported in paper PMC5727386.

How the values were obtained:
[1] = molecular target: Tyrosine phosphatase Sts1 (UniProt Q8BGG7); test: co-immunoprecipitation (anti-Bcr-Abl/Abl IP, Sts1 immunoblot, quantified); conditions: BaF3 cells stably transduced with the Bcr-Abl variants; parent: est. 1.0; read off a plot
[2] = molecular target: Bcr-Abl DH domain (residues 487–702) (UniProt P11274); test: NMR titration; GTPase titrated to 50 μM 15N-labeled DH domain; 50 mM HEPES pH 7, 50 mM NaCl, 1 mM DTT, 1 mM imidazole, 2 mM EDTA; [15N,1H]-TROSY; about 10 peaks fitted to a 1:1 binding model, mean Kd
Bcr-Abl DH domain (residues 487–702), sequence (P11274 487-702): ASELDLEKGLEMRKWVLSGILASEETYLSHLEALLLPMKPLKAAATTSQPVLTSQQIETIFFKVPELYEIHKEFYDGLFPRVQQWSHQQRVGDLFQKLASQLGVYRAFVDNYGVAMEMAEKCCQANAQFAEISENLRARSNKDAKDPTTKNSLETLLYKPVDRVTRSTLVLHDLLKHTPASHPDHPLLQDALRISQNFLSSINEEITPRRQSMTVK

Tyrosine phosphatase Sts1, sequence (Q8BGG7 whole entry, the tested form may be a part): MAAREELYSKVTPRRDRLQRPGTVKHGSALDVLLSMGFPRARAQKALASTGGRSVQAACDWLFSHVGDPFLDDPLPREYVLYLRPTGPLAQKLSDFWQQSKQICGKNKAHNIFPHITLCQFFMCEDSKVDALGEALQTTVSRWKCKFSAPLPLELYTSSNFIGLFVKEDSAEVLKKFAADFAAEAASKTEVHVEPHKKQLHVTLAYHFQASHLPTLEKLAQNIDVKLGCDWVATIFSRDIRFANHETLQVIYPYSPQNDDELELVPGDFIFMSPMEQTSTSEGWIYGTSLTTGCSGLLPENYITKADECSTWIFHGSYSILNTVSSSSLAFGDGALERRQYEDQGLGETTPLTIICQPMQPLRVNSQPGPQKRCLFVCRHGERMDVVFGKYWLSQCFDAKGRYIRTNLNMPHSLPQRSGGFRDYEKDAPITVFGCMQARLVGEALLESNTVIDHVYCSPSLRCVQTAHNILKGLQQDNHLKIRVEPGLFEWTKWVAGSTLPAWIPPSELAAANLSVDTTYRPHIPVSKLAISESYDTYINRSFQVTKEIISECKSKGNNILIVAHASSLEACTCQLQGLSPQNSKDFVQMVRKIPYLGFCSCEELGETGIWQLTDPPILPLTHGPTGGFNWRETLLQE
Bcr-Abl p210 (from UniProt P11274) R726A; F1100E, sequence (P11274 whole entry, stated change not applied): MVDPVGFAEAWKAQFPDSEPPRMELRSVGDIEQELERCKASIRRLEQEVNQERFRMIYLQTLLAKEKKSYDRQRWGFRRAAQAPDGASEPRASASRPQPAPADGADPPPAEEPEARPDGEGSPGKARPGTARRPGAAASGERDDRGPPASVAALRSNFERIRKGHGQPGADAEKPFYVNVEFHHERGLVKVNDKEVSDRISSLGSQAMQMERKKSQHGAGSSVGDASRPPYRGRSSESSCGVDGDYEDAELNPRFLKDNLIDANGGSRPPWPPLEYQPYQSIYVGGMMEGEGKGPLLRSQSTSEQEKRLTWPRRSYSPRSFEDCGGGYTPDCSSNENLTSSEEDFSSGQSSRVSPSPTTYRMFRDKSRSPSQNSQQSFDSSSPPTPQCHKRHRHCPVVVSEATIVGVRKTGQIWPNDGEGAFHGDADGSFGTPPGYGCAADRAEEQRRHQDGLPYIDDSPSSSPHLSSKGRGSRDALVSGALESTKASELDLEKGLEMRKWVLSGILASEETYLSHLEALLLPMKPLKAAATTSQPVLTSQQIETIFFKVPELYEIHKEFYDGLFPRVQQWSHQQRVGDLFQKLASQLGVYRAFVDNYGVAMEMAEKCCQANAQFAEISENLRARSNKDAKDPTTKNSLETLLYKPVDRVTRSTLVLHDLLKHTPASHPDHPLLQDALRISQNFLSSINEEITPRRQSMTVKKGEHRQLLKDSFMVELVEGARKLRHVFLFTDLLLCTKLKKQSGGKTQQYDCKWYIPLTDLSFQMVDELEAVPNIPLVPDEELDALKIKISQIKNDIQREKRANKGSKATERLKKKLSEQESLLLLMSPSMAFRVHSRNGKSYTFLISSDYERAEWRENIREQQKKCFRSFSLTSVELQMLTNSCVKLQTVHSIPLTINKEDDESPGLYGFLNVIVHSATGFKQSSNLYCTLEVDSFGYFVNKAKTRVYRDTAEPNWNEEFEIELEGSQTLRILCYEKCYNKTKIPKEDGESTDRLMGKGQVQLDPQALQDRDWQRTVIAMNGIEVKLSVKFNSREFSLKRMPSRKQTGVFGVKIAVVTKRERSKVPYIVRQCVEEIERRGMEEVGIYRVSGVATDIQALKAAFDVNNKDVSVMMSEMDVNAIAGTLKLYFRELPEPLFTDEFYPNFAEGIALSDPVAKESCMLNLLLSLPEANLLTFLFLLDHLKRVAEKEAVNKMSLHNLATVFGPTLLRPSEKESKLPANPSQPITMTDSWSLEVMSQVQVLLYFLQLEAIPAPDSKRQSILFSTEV
Bcr-Abl p210 (from UniProt P11274) F1100E, sequence (P11274 whole entry, stated change not applied): as above
Bcr-Abl p210 (from UniProt P11274) R723A; K724A; F1100E, sequence (P11274 whole entry, stated change not applied): as above

ratio to parent [1] | Kd [2] [µM] | Substance
0.5 | – | Bcr-Abl p210 (from UniProt P11274) R726A; F1100E
0.24 | – | Bcr-Abl p210 (from UniProt P11274) R723A; K724A; F1100E
– | 1900 | Cdc42 (from UniProt P60953 1-191) (enzyme)
– | 600 | RhoA (from UniProt P61586 1-193) (enzyme)
0.55 | – | Bcr-Abl p210 (from UniProt P11274) F1100E
